From US9982028B2, “Recombinant human interferon-like proteins” (Novagen Holding Corporation, priority 2007, dated 2018)
“And” between values parts separate entries of the source, which are not always exact repeats. Identical values can stand only once. “Also recorded” adds a separate entry of the source.

Columns and labels:
[1] = test system: Vesicular Stomatitis Virus (VSV) on WISH cells; type: cell-based; conditions: against VSV on WISH; units with reference to WHO international standards 94/786 and 95/650
[2] = test system: HeLa cervix adenocarcinoma cell line; experiment: Anti-proliferative assay, HeLa; type: cell-based, human
[3] = test system: LS 180 colorectal adenocarcinoma cell line; experiment: Anti-proliferative assay, LS 180; type: cell-based, human
[4] = test system: MKN 1 gastric adenocarcinoma cell line; experiment: Anti-proliferative assay, MKN 1; type: cell-based, human
[5] = test system: PC-3 prostate carcinoma cell line; experiment: Anti-proliferative assay, PC-3; type: cell-based, human
[6] = test system: DLD-1 colorectal adenocarcinoma cell line; experiment: Anti-proliferative assay, DLD-1; type: cell-based, human
[7] = test system: Hep G2 hepatocellular carcinoma cell line; experiment: Anti-proliferative assay, Hep G2; type: cell-based, human; conditions: HepG2
[8] = test system: LS174T colorectal adenocarcinoma cell line; experiment: Anti-proliferative assay, LS174T; type: cell-based, human
[9] = test system: PLC/PRF/5 hepatoma cell line; experiment: Anti-proliferative assay, PLC/PRF/5; type: cell-based, human
[10] = test system: DU 145 prostate carcinoma cell line; experiment: Anti-proliferative assay, DU 145; type: cell-based, human
[11] = test system: C-33A cervix carcinoma cell line; experiment: Anti-proliferative assay, C-33A; type: cell-based, human
[12] = test system: human prostate cancer PC-3 xenografts; experiment: Human prostate cancer xenograft model; type: in vivo, athymic nude Balb/c mice; conditions: PC-3 xenograft; for Inhibition rate / Tumor weight (mean ± SD): 30 days; for Tumor weight (mean ± SD): n = 10
Procedure: Colon cancer cell line (LS 180), melanoma cell line (A-375) and liver cancer cell line (Hep G2) were obtained from the American Type Culture Collection (ATCC, Rockville, Md.). Prostate cancer cell line (PC-3) was obtained from German National Resource Centre for Biological Material (DSMZ, Deutsche […] von Mikroorganismen and Zellkulturen, Germany). Lymphocytic cell line (HL 60(s) was purchased from Japanese Collection of Research Bioresources Cell Bank (JCRB, Japan). All cells were cultured according to their instructions (see Table 1). Briefly, LS 180 and Hep G2 were cultured in MEM medium. A-375 was cultured in DMEM. Both media were supplemented with 10% fetal bovine serum (FBS), 2 mM […] U/ml of penicillin, […] of streptomycin, 0.1 mM non-essential amino acids, and 1.0 mM sodium pyruvate. PC-3 and HL 60 (S) cells were cultured in RPMI 1640, supplemented with 10% FBS, 100 U/ml of penicillin, and […] of streptomycin. All cells were maintained in 5% CO2 atmosphere at 37° C. […] For the treatment of 5-FU, 30 mg/kg of 5-FU was i.v. administrated once every two days for a total of 5 times. The groups and treatment doses are summarized below: Once treatment commenced, tumors were measured with a caliper once a week. […] Mice were sacrificed at the day of treatment discontinuation (day 30 after commencement of the treatment). Solid tumors were isolated, photographed, and measured. […] C is the average tumor weight in control group after treatment.

[13] = test system: A549 lung carcinoma cell line; experiment: Anti-proliferative assay, A549; type: cell-based, human
HuH-7 hepatoma cell line = experiment: Anti-proliferative assay, HuH-7; type: cell-based, human
A-375 melanoma cell line = experiment: Anti-proliferative assay, A-375; type: cell-based, human
[14] = test system: SW 1116 colorectal adenocarcinoma cell line; experiment: Anti-proliferative assay, SW 1116; type: cell-based, human
IGR-1 melanoma cell line = experiment: Anti-proliferative assay, IGR-1; type: cell-based, human
[15] = test system: Hep3B hepatocellular carcinoma cell line; experiment: Anti-proliferative assay, Hep3B; type: cell-based, human
[16] = test system: L-428 Hodgkin's lymphoma cell line; experiment: Anti-proliferative assay, L-428; type: cell-based, human
[17] = test system: human liver cancer Hep G2 xenografts; experiment: Human liver cancer xenograft model; type: in vivo, athymic nude Balb/c mice; conditions: 30 days; for Tumor weight (mean ± SD): n = 10
[18] = test system: human colon cancer LS 180 xenografts; experiment: Human colon cancer xenograft model; type: in vivo, athymic nude Balb/c mice; conditions: LS 180 xenograft, 28 days; for Tumor weight (X ± SD): n = 10
[19] = test system: IGR-37 melanoma cell line; experiment: Anti-proliferative assay, IGR-37; type: cell-based, human
[20] = test system: HL-60(S) lymphocytic cell line; experiment: Anti-proliferative assay, HL-60(S); type: cell-based, human
[21] = test system: HCT-8 colorectal adenocarcinoma cell line; experiment: Anti-proliferative assay, HCT-8; type: cell-based, human
[22] = test system: IPC-298 melanoma cell line; experiment: Anti-proliferative assay, IPC-298; type: cell-based, human
[23] = General condition of the mice during treatment; type: in vivo; conditions: mice with human cancer xenografts, during the treatment period
[24] = test system: KYSE 30 esophagus carcinoma cell line; experiment: Anti-proliferative assay, KYSE 30; type: cell-based, human
[25] = test system: human melanoma A-375 xenografts; experiment: Human melanoma xenograft model; type: in vivo, athymic nude Balb/c mice; conditions: A-375 xenograft; for Tumor weight (X ± SD): 30 days (28 days in the source), n = 10

B1: Novaferon: novel recombinant non-naturally occurring human interferon-like protein, 166 amino acids (SEQ ID No: 2), from Type I interferon shuffling library, expressed in E. coli (protein)
chain: CNLSQTHSLGSKRTLMLLAQMGKISLFSCLKDRHDFEFPQEEFDGNQFQKAQAISVLHELIQQTFNLFSTKESSAAWDEGLLDKFRTELYRQLNDLEACMMQEVGVEETPLMNADSILAVKKYFQRITLYLMEKKYSPCAWEVVRVEIMRSLSFSTNLQKRLRGKD
- anti-viral activity [1]: 2.5×10^9 IU/mg
- Fold (Novaferon/HuIFN-α2b), increased tumor cell inhibition [2]: 141 fold
- Fold (Novaferon/HuIFN-α2b), increased tumor cell inhibition [3]: 350 fold
- Fold (Novaferon/HuIFN-α2b), increased tumor cell inhibition [4]: 207 fold
- Fold (Novaferon/HuIFN-α2b), increased tumor cell inhibition [5]: 128 fold
- Fold (Novaferon/HuIFN-α2b), increased tumor cell inhibition [6]: 282 fold
- Fold (Novaferon/HuIFN-α2b), increased tumor cell inhibition [7]: 43 fold
- Fold (Novaferon/HuIFN-α2b), increased tumor cell inhibition [8]: 74 fold
- Fold (Novaferon/HuIFN-α2b), increased tumor cell inhibition [9]: 16 fold
- Fold (Novaferon/HuIFN-α2b), increased tumor cell inhibition [10]: 36 fold
- Fold (Novaferon/HuIFN-α2b), increased tumor cell inhibition [11]: 143 fold
- Inhibition rate ([12]; 1.25 μg/kg daily s.c.): 35.0%
- Tumor weight (mean ± SD) ([12]; 1.25 μg/kg daily s.c.): 1.266 ± 0.457 g
- Inhibition rate ([12]; 12.5 μg/kg daily s.c.): 61.0%
- Tumor weight (mean ± SD) ([12]; 12.5 μg/kg daily s.c.): 0.759 ± 0.574 g
- Inhibition rate ([12]; 125 μg/kg daily s.c.): 95.3% and 95.1%
- Tumor weight (mean ± SD) ([12]; 125 μg/kg daily s.c.): 0.09±0.081 g and 0.091±0.081 g and 0.091 ± 0.081***@@@ g
- average volume of tumor mass ([12]; 125 μg/kg daily s.c., day 28): 107.9±68.7 mm^3
- average volume of tumor mass ([12]; 125 μg/kg daily s.c., day 30): 122.1±100.7 mm^3
- Fold (Novaferon/HuIFN-α2b), increased tumor cell inhibition [13]: 19 fold
- Fold (Novaferon/HuIFN-α2b), increased tumor cell inhibition (HuH-7 hepatoma cell line): 58 fold
- Fold (Novaferon/HuIFN-α2b), increased tumor cell inhibition (A-375 melanoma cell line): 733 fold
- Fold (Novaferon/HuIFN-α2b), increased tumor cell inhibition [14]: 222 fold
- Fold (Novaferon/HuIFN-α2b), increased tumor cell inhibition (IGR-1 melanoma cell line): 876 fold
- Fold (Novaferon/HuIFN-α2b), increased tumor cell inhibition [15]: 58 fold
- Fold (Novaferon/HuIFN-α2b), increased tumor cell inhibition [16]: 1134 fold
- Inhibition rate ([17]; 1.25 μg/kg daily s.c.): 63.4%
- average tumor volume ([17]; 1.25 μg/kg daily s.c.): 783.2±270.0 mm^3
- Tumor weight (mean ± SD) ([17]; 1.25 μg/kg daily s.c.): 0.797 ± 0.397 g
- Inhibition rate ([17]; 12.5 μg/kg daily s.c.): 85.3%
- average tumor volume ([17]; 12.5 μg/kg daily s.c.): 439.3±414.3 mm^3
- Tumor weight (mean ± SD) ([17]; 12.5 μg/kg daily s.c.): 0.321 ± 0.300 g
- Inhibition rate ([17]; 125 μg/kg daily s.c.): 96.6%
- average tumor volume ([17]; 125 μg/kg daily s.c.): 104.6±56.5 mm^3
- Tumor weight (mean ± SD) ([17]; 125 μg/kg daily s.c.): 0.074±0.083 g and 0.074 ± 0.083***@ g
- Inhibition rate ([18]; 1.25 μg/kg daily s.c.): 75.0%
- Tumor weight (X ± SD) ([18]; 1.25 μg/kg daily s.c.): 1.043 ± 0.433 g
- Inhibition rate ([18]; 12.5 μg/kg daily s.c.): 80.5%
- Tumor weight (X ± SD) ([18]; 12.5 μg/kg daily s.c.): 0.815 ± 0.221 g
- Inhibition rate ([18]; 125 μg/kg daily s.c.): 92.5%
- Tumor weight (X ± SD) ([18]; 125 μg/kg daily s.c.): 0.314 ± 0.086 &&&@@@ g
- Fold (Novaferon/HuIFN-α2b), increased tumor cell inhibition [19]: 109 fold
- Fold (Novaferon/HuIFN-α2b), increased tumor cell inhibition [20]: 306 fold
- Fold (Novaferon/HuIFN-α2b), increased tumor cell inhibition [21]: 212 fold
- Fold (Novaferon/HuIFN-α2b), increased tumor cell inhibition [22]: 70 fold
- general condition of treated mice (eating, behavior, weight loss) [23]: did not induce weight loss, activity changes and other negative side-effects; also recorded: normal eating and activity behavior and no weight loss; also recorded: generally ate and behaved normally, and had no weight loss
- Fold (Novaferon/HuIFN-α2b), increased tumor cell inhibition [24]: 683 fold
- Inhibition rate ([25]; 1.25 μg/kg daily s.c.): 40.1%
- Tumor weight (X ± SD) ([25]; 1.25 μg/kg daily s.c.): 1.830 ± 0.289 g
- Inhibition rate ([25]; 12.5 μg/kg daily s.c.): 75.0%
- Tumor weight (X ± SD) ([25]; 12.5 μg/kg daily s.c.): 0.763±0.187 g and 0.763 ± 0.187***&& $$$ g
- Inhibition rate ([25]; 125 μg/kg daily s.c.): 82.8%
- Tumor weight (X ± SD) ([25]; 125 μg/kg daily s.c.): 0.527±0.149 g and 0.527 ± 0.149***&&&@@@ g
